{"source": "patent US20160264663A1", "about": "(published 2016)", "binders": {"B1": {"name": "Rb/Hu Podo83 (Podo83 rabbit VH and VL, human IgG1 chimera) (antibody, V domains shown)", "VH": "CQSLAESGGRLVTPGTPLTLTCTASGIDLSSYAMGWVRQAPGKGLEYIGFIYASGSIFYASWAKGRFTISKTSSTTVDLKMTSLTTEDTATYFCARAGYYFGGNYDLNLWGQGTLVTVSS", "VL": "DIVLTQTPASVEVAVGGTVTIKCQASQSISNYLAWYQRKPGQPPRLLIYRASTLASGVSSRFKGSGSGTQFTLTISGVECADAATYYCQQGYVSNNLDNIFGGGTEVVVK", "modifications": "human IgG1/kappa constant regions"}}, "key": {"[1]": {"biological_target": "human podocalyxin (human)", "sequence (O00592 23-558)": "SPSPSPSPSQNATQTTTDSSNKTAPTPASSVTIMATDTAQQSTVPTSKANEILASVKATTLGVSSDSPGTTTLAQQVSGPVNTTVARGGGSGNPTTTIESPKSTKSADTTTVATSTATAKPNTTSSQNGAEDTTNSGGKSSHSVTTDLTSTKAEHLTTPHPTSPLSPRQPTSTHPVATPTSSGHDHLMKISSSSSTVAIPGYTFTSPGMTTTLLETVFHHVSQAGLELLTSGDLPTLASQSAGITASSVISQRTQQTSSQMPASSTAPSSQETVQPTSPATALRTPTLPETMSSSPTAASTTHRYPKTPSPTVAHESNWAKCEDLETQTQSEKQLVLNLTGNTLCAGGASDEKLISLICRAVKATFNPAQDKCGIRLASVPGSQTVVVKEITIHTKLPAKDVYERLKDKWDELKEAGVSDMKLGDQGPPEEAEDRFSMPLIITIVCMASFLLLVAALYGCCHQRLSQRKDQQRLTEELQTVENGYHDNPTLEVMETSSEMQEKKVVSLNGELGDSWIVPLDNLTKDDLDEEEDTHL", "assay": "flow cytometry, 5 ug/mL antibody, MCF7 cells"}, "[2]": {"biological_target": "human podocalyxin (human)", "assay": "flow cytometry, 5 ug/mL antibody, HUVEC cells"}, "[3]": {"biological_target": "human podocalyxin (human)", "assay": "flow cytometry, supernatant 1:5, hPodo/MDA-MB-231 transient transfectants"}, "[4]": {"biological_target": "human podocalyxin (human)", "assay": "kinetic exclusion assay (KinExA 3200), MDA-MB-231 cells"}, "[5]": {"biological_target": "human podocalyxin (human)", "assay": "flow cytometry, OVCAR10 cells"}, "[6]": {"biological_target": "human podocalyxin (human)", "assay": "kinetic exclusion assay (KinExA 3200), A172 cells"}, "[7]": {"biological_target": "human podocalyxin (human)", "assay": "flow cytometry, 293 HEK cells"}, "[8]": {"biological_target": "human podocalyxin (human)", "assay": "flow cytometry, MDA-MB-231 cells"}, "[9]": {"biological_target": "human podocalyxin (human)", "assay": "flow cytometry, supernatant 1:125, MDA-MB-231 cells"}, "[10]": {"biological_target": "human podocalyxin (human)", "assay": "flow cytometry, supernatant 2:15 (so in the source), hPodo/MDA-MB-231 transient transfectants"}, "[11]": {"biological_target": "human podocalyxin (human)", "assay": "flow cytometry, MCF7 cells"}, "[12]": {"biological_target": "human podocalyxin (human)", "assay": "flow cytometry, HUVEC cells"}, "[13]": {"biological_target": "human podocalyxin (human)", "assay": "flow cytometry, CaOV3 cells"}, "[14]": {"biological_target": "human podocalyxin (human)", "assay": "flow cytometry, supernatant 1:125, hPodo/MDA-MB-231 transient transfectants"}, "[15]": {"biological_target": "human podocalyxin (human)", "assay": "flow cytometry, OVCAR3 cells"}, "[16]": {"biological_target": "human podocalyxin (human)", "assay": "flow cytometry, T47-D cells"}, "[17]": {"biological_target": "human podocalyxin (human)", "assay": "flow cytometry, 5 ug/mL antibody, CaOV3 cells"}, "[18]": {"biological_target": "human podocalyxin (human)", "assay": "FACS on MDA-MB-231 cells; biotinylated antibody 5 ug/mL, no competitor (FACS Buffer row)"}, "[19]": {"biological_target": "human podocalyxin (human)", "assay": "flow cytometry, supernatant 1:5, MDA-MB-231 cells"}, "[20]": {"biological_target": "human podocalyxin (human)", "assay": "flow cytometry, SKOV3 cells"}, "[21]": {"biological_target": "human podocalyxin (human)", "assay": "flow cytometry, 5 ug/mL antibody, OVCAR10 cells"}, "[22]": {"biological_target": "human podocalyxin (human)", "assay": "flow cytometry, 5 ug/mL antibody, OVCAR3 cells"}, "[23]": {"biological_target": "human podocalyxin (human)", "assay": "flow cytometry, supernatant neat, MDA-MB-231 cells"}, "[24]": {"biological_target": "human podocalyxin (human)", "assay": "flow cytometry titration on 293-6E cells (endogenous podocalyxin), 48 hours at 4 C"}, "[25]": {"biological_target": "human podocalyxin (human)", "assay": "flow cytometry, A172 cells"}, "[26]": {"biological_target": "human podocalyxin (human)", "assay": "flow cytometry, 5 ug/mL antibody, MDA-MB-231 cells"}, "[27]": {"biological_target": "human podocalyxin (human)", "assay": "flow cytometry, 5 ug/mL antibody, T47-D cells"}, "[28]": {"biological_target": "human podocalyxin (human)", "assay": "flow cytometry, supernatant neat, hPodo/MDA-MB-231 transient transfectants"}, "[29]": {"biological_target": "human podocalyxin (human)", "assay": "flow cytometry, 5 ug/mL antibody, 293 cells"}, "[30]": {"biological_target": "human podocalyxin (human)", "assay": "FACS, hPodo/MDA cells (MDA-MB-231 transfected with human podocalyxin cDNA)"}, "[31]": {"biological_target": "human podocalyxin (human)", "assay": "flow cytometry, 5 ug/mL antibody, A172 cells"}, "[32]": {"biological_target": "human podocalyxin (human)", "assay": "flow cytometry, supernatant 2:15 (so in the source), MDA-MB-231 cells"}, "[33]": {"biological_target": "human podocalyxin (human)", "assay": "flow cytometry titration on 293-6E cells (endogenous podocalyxin), 24 hours at 4 C"}}, "data": [{"binder": "B1", "values": [{"measurement": "Live cell GeoMean FL (geometric mean fluorescence units)", "setting": "[1]", "value": 60800}, {"measurement": "Live cell GeoMean FL (geometric mean fluorescence units)", "setting": "[2]", "value": 44600}, {"measurement": "FACS signal (name not given)", "setting": "[3]", "value": 99300}, {"measurement": "Kd", "setting": "[4]", "value": 0.0456, "unit": "nM"}, {"measurement": "Live cell GeoMean FL (geometric mean fluorescence units)", "setting": "[5]", "value": 1530}, {"measurement": "Kd", "setting": "[6]", "value": 0.103, "unit": "nM"}, {"measurement": "Live cell GeoMean FL (geometric mean fluorescence units)", "setting": "[7]", "value": 28200}, {"measurement": "Live cell GeoMean FL (geometric mean fluorescence units)", "setting": "[8]", "value": 88900}, {"measurement": "FACS signal (name not given)", "setting": "[9]", "value": 50600}, {"measurement": "FACS signal (name not given)", "setting": "[10]", "value": 155000}, {"measurement": "Live cell GeoMean FL (geometric mean fluorescence units)", "setting": "[11]", "value": 28400}, {"measurement": "Live cell GeoMean FL (geometric mean fluorescence units)", "setting": "[12]", "value": 24500}, {"measurement": "Live cell GeoMean FL (geometric mean fluorescence units)", "setting": "[13]", "value": 23400}, {"measurement": "FACS signal (name not given)", "setting": "[14]", "value": 58500}, {"measurement": "Live cell GeoMean FL (geometric mean fluorescence units)", "setting": "[15]", "value": 28600}, {"measurement": "Live cell GeoMean FL (geometric mean fluorescence units)", "setting": "[16]", "value": 1130}, {"measurement": "Live cell GeoMean FL (geometric mean fluorescence units)", "setting": "[17]", "value": 48800}, {"measurement": "FACS signal (name not given)", "setting": "[18]", "value": 139000}, {"measurement": "FACS signal (name not given)", "setting": "[19]", "value": 121000}, {"measurement": "Live cell GeoMean FL (geometric mean fluorescence units)", "setting": "[20]", "value": 59800}, {"measurement": "Live cell GeoMean FL (geometric mean fluorescence units)", "setting": "[21]", "value": 2820}, {"measurement": "Live cell GeoMean FL (geometric mean fluorescence units)", "setting": "[22]", "value": 16500}, {"measurement": "FACS signal (name not given)", "setting": "[23]", "value": 143000}, {"measurement": "EC50 (half-maximal binding)", "setting": "[24]", "value": 0.0305, "unit": "µg/mL"}, {"measurement": "Live cell GeoMean FL (geometric mean fluorescence units)", "setting": "[25]", "value": 224000}, {"measurement": "Live cell GeoMean FL (geometric mean fluorescence units)", "setting": "[26]", "value": 91900}, {"measurement": "Live cell GeoMean FL (geometric mean fluorescence units)", "setting": "[27]", "value": 1500}, {"measurement": "FACS signal (name not given)", "setting": "[28]", "value": 79000}, {"measurement": "Live cell GeoMean FL (geometric mean fluorescence units)", "setting": "[29]", "value": 28200}, {"measurement": "FACS signal (name not given)", "setting": "[30]", "value": 178000}, {"measurement": "Live cell GeoMean FL (geometric mean fluorescence units)", "setting": "[31]", "value": 170000}, {"measurement": "FACS signal (name not given)", "setting": "[32]", "value": 102000}, {"measurement": "EC50", "setting": "[33]", "value": 0.0295, "unit": "µg/mL"}]}]}
